The record followed here is the supplement of paper PMC7877785.

± gives the uncertainty stated by the source.

A short description of the series: self-splicing fitness, log relative to wild type (ln ratio); higher = more splicing; Tetrahymena group I intron in knt gene, E. coli kanamycin selection, DiMSum; sequences stand for … in CUCUCU…GGAGGGAAAAGUUAUCAGGCAUGCACCUGGUAGCUAGUCUUUAAACCAAUAGAUUGCAUCGGUUUAAAAGGCAAGACCGUCAAAUUGCGGGAAAGGGGUCAACAGCCGUUCAGUACCAAGUCUCAGGGGAAACUUUGAGAUGGCCUUGCAAAGGGUAUGGUAAUAAGCUGACGGACAUGGUCCUAACCACGCAGCCAAGUCCUAAGUCAACAGAUCUUCUGUUGAUAUGGAUGCAGUUCACAGACUAAAUGUCGGUCGGGGAAGAUGUAUUCUUCUCAUAAGAUAUAGUCGGACCUCUCCUUAAUGGGAGCUAGCGGAUGAAGUGAUGCAACACUGGAGCCGCUGGGAACUAAUUUGUAUGCGAAAGUAUAUUGAUUAGUUUUGGAGUACUCGUGGUCG
In a few lines: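 Library with all eight P1ex-region intron nucleotides randomised, intron inside the knt kanamycin-resistance gene on pET-22b(+), in E. coli BL21(DE3). Cells grew overnight at 37°C or 30°C on LB agar with or without 25 μg/mL kanamycin (plus 100 μg/mL carbenicillin, 50 μM IPTG, 0.2% rhamnose), in six replicate transformations. Pooled colonies were amplicon-sequenced on Illumina HiSeq 2500. DiMSum fitness is the error-weighted combination of wild-type-normalised replicate fold changes, kanamycin versus none.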

On to GACGAGCAAUAUUACGAUAC, for which the “self-splicing fitness (ln)” value (30 °C) was -4.85 ± 0.28 and the “self-splicing fitness (ln)” value (37 °C) was -2.16 ± 0.2. GCUGAGCAAUAUUACGGACU: the “self-splicing fitness (ln)” value was -2.6 ± 0.36 (30 °C) and -1.36 ± 0.24 (37 °C). The like results for CAUUAGCAAUAUUACGCGUU were, in that order, -2.44 ± 0.12 and -1.48 ± 0.17. For AAGCAGCAAUAUUACGGGGG the same measures were -3.26 ± 0.22 and -1.92 ± 0.16. As for UACCAGCAAUAUUACGCCUG, the “self-splicing fitness (ln)” value reads like this: (30 °C) -1.3 ± 0.14; (37 °C) -1.21 ± 0.19. The like results for CCGUAGCAAUAUUACGACUU were, in that order, -2.98 ± 0.37 and -2.67 ± 0.41. The like results for AUACAGCAAUAUUACGGUGG were, in that order, -2.95 ± 0.11 and -2.92 ± 0.15. The like results for AUUCAGCAAUAUUACGUGGA were, in that order, -2.72 ± 0.18 and -1.79 ± 0.12.

GCCAAGCAAUAUUACGAUCU: the “self-splicing fitness (ln)” value was -1.94 ± 0.13 (30 °C) and -0.903 ± 0.098 (37 °C).

Regarding GCCUAGCAAUAUUACGAGUA, the “self-splicing fitness (ln)” value is -1.7 ± 0.093 (30 °C) and -1.88 ± 0.085 (37 °C). The like results for UUACAGCAAUAUUACGUGCA were, in that order, -1.27 ± 0.055 and -0.148 ± 0.063. For CCCUAGCAAUAUUACGCGAG the same measures were -3.61 ± 0.19 and -3.25 ± 0.21.

As for AUAGAGCAAUAUUACGACUA, the “self-splicing fitness (ln)” value was -0.25 ± 0.073 (30 °C) and 0.211 ± 0.088 (37 °C). AGUCAGCAAUAUUACGCGAC: the “self-splicing fitness (ln)” value is, setting by setting: (30 °C) -2.59 ± 0.26; (37 °C) -3.14 ± 0.35.

As to AUAGAGCAAUAUUACGUGAC, the “self-splicing fitness (ln)” value reads like this: (30 °C) -1.62 ± 0.23; (37 °C) -1.6 ± 0.28. Take ACUAAGCAAUAUUACGGCCU: the “self-splicing fitness (ln)” value reads like this: (30 °C) -0.171 ± 0.073; (37 °C) -0.475 ± 0.087. For GAGCAGCAAUAUUACGCGGG the same measures were -2.52 ± 0.21 and -1.96 ± 0.23. As for AGCUAGCAAUAUUACGCCCG, the “self-splicing fitness (ln)” value (37 °C) is -0.486 ± 0.32. On to GCCAAGCAAUAUUACGUCCC, for which the “self-splicing fitness (ln)” value is -0.579 ± 0.15 (30 °C) and -0.607 ± 0.3 (37 °C).

Turning to CCUAAGCAAUAUUACGCCAA, the “self-splicing fitness (ln)” value runs as follows: (30 °C) -2.22 ± 0.24; (37 °C) -3.27 ± 0.46.

With CAUAAGCAAUAUUACGGGGA, the “self-splicing fitness (ln)” value by setting is: (30 °C) -2.02 ± 0.17; (37 °C) -2.83 ± 0.23. The like results for AAACAGCAAUAUUACGCGAA were, in that order, -1.95 ± 0.096 and -1.43 ± 0.11. The like results for AUUUAGCAAUAUUACGUAUU were, in that order, -3 ± 0.16 and -1.47 ± 0.19. The like results for AGACAGCAAUAUUACGGGCG were, in that order, -0.665 ± 0.1 and -0.459 ± 0.12. With UUGGAGCAAUAUUACGGGCC, for the setting “37 °C”, the “self-splicing fitness (ln)” value is -1.33 ± 0.42. For the sequence CGUGAGCAAUAUUACGGAAG, the “self-splicing fitness (ln)” value was -1.17 ± 0.1 (30 °C) and -1.01 ± 0.13 (37 °C). For GGCUAGCAAUAUUACGCUGU the same measures were -3.44 ± 0.29 and -1.19 ± 0.21. For UCUGAGCAAUAUUACGUAAG, the “self-splicing fitness (ln)” value is -0.697 ± 0.11 (30 °C) and -0.863 ± 0.19 (37 °C). For ACGAAGCAAUAUUACGCUGC the same measures were -3.95 ± 0.25 and -1.35 ± 0.18. Consider GUUUAGCAAUAUUACGACGU, for which the “self-splicing fitness (ln)” value was -0.531 ± 0.1 (30 °C) and 0.347 ± 0.14 (37 °C). In the case of CGCGAGCAAUAUUACGAGGA, the “self-splicing fitness (ln)” value by setting is: (30 °C) -3.16 ± 0.22; (37 °C) -2.16 ± 0.18. The like results for GAGGAGCAAUAUUACGACAC were, in that order, -0.706 ± 0.35 and -0.696 ± 0.31. Regarding GUUUAGCAAUAUUACGGCCU, the “self-splicing fitness (ln)” value (30 °C) was -0.716 ± 0.15 and the “self-splicing fitness (ln)” value (37 °C) came to 0.714 ± 0.15. In the case of ACGGAGCAAUAUUACGACGG, the “self-splicing fitness (ln)” value was -1.46 ± 0.1 (30 °C) and 0.14 ± 0.12 (37 °C). Turning to GUAGAGCAAUAUUACGUCUA, the “self-splicing fitness (ln)” value reads like this: (30 °C) -1.34 ± 0.11; (37 °C) -0.919 ± 0.13.

UGGAAGCAAUAUUACGCUGG: the “self-splicing fitness (ln)” value is -1.74 ± 0.12 (30 °C) and -1.26 ± 0.14 (37 °C). The like results for AGCGAGCAAUAUUACGACUG were, in that order, -1.91 ± 0.15 and -0.973 ± 0.17. For CCAAAGCAAUAUUACGGGGA the same measures were -3.41 ± 0.16 and -2.93 ± 0.17.
